Source: patent publication US20210054076A1 (Chugai, published 2021)

Experiments:
[1] = target: T1, human CLDN6 (human, UniProt P56747 1-220); test: cell-based or functional assay
T1 sequence: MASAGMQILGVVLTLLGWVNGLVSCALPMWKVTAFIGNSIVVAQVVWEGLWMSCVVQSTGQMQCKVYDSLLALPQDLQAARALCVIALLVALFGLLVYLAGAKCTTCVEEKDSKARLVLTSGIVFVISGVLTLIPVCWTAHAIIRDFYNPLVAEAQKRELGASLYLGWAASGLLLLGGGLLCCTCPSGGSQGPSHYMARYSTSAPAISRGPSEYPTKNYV

[2] = target: T2, hCLDN6(Q156L) (human, UniProt P56747 1-220); test: FACS on Ba/F3 transfectant, antibody 20 micro g/ml, FITC anti-human IgG
T2 construct: Stably expressed on Ba/F3 cells; also called human CLDN6 mutant; BaF3_hCLDN6(Q156L)
T2 chain: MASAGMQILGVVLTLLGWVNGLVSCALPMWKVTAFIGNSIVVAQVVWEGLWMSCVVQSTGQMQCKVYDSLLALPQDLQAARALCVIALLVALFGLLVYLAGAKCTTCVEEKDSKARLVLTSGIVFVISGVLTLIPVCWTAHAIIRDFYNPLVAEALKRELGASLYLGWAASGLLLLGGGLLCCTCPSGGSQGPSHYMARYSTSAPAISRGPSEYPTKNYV
Method: (§1) To evaluate the binding activity and specificity of the generated CLDN6-TRABs against CLDN6 and other Claudin family antigens, FACS analysis was conducted as follows. Ba/F3 transfectants stably express a kind of protein selected from human CLDN3 (hCLDN3), human CLDN4 (hCLDN4), human CLDN6 (hCLDN6), human CLDN9 (hCLDN9), mouse CLDN3 (mCLDN3), mouse CLDN4 (mCLDN4) and mouse CLDN6 (mCLDN6), were generated using similar method described in WO2008/087978, and named BaF3_hCLDN3, BaF3_hCLDN4, BaF3_hCLDN6, BaF3_hCLDN9, BaF3 mCLDN3, BaF3 mCLDN4, BaF3 mCLDN6, respectively. Each of the CLDN6-TRABs (CH01/CD3, CH02/CD3, CH03/CD3, CH04/CD3) was incubated with the Ba/F3 transfectants at an antibody concentration of 20 micro g/ml in FACS buffer (0.5% BSA containing autoMACS Rinsing Solution, Miltenyl Biotec). Binding activities of each CLDN6-TRAB to the Claudin family proteins (hCLDN3, hCLDN4, hCLDN6, hCLDN9, mCLDN3, mCLDN4, mCLDN6) were examined by incubation of FITC-conjugated goat anti human IgG (BeckmanCoulter), represented as Geo-mean value. Sample processing was conducted on FACSVerse (BD).
(§2) Claudin family proteins have two extracellular domains. The sequence of the first extracellular domain in human CLDN9 is almost the same compared with the first extracellular domain of human CLDN6. For the second extracellular domain of human CLDN9, there are only two amino acids different from the ones at their corresponding positions in human CLDN6 (FIG. 2). The glutamine at position 156 of human Claudin 6 (position 156 in the sequence shown in SEQ ID NO: 44 or 45) was substituted to leucine to make a human CLDN6 mutant comprising the same amino acid as human Claudin 9 at position 156. This human CLDN6 mutant was named as hCLDN6(Q156L) (SEQ ID NO: 53). Ba/F3 transfectant stably express hCLDN6(Q156L) was generated using similar method described in WO2008/087978. The established Ba/F3 transfectant was named BaF3_hCLDN6(Q156L). Binding activity of the generated CLDN6-TRABs against BaF3_hCLDN6(Q156L) was measured using the above mentioned FACS method and the results are shown in FIG. 1 and Table 3.

[3] = target: T3, human CLDN3 (human, UniProt O15551 1-220); test: as above
T3 construct: whole, on cells; also called hCLDN3; BaF3_hCLDN3
T3 sequence (looked up): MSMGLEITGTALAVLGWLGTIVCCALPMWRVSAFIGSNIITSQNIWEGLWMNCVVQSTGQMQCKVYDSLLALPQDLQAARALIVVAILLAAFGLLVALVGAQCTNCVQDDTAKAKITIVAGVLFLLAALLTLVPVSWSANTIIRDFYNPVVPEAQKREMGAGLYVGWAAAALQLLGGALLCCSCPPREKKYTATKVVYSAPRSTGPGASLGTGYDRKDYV
Method: as §1, §2

[4] = target: T4, human CLDN4 (human, UniProt O14493 1-209); test: as above
T4 construct: whole, on cells; also called hCLDN4; BaF3_hCLDN4
T4 sequence (looked up): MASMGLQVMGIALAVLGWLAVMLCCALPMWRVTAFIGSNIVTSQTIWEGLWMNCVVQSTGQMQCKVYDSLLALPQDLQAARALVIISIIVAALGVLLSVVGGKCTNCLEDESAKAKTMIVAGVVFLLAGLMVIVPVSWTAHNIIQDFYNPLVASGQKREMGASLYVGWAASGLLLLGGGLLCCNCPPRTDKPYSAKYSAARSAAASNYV
Method: as §1, §2

[5] = target: T5, mouse CLDN4 (mouse, UniProt O35054 1-210); test: as above
T5 construct: whole, on cells; also called mCLDN4; BaF3_mCLDN4
T5 sequence (looked up): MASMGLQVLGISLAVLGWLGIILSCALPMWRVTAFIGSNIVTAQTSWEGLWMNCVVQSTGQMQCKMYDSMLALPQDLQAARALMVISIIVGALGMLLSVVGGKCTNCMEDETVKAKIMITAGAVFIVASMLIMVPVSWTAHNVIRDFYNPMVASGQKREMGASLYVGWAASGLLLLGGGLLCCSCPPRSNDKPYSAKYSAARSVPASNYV
Method: as §1, §2

[6] = target: T6, mouse CLDN6 (mouse, UniProt Q9Z262 1-219); test: as above
T6 construct: whole, on cells; also called mCLDN6; BaF3_mCLDN6
T6 sequence (looked up): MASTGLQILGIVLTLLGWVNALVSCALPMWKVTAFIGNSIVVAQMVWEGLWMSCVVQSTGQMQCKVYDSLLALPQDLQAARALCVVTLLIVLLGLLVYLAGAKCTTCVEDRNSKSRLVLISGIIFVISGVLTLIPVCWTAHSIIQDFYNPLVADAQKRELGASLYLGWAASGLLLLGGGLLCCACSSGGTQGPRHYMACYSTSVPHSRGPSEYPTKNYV
Method: as §1, §2

B1: CH04/CD3 (bispecific antibody, human IgG1, kappa, N297A)
heavy 1: EVQLQQSGPELVKPGASMKISCKASGYSFTGYTMNWVKQSHGKNLEWIGLINPYNGGTIYNQKFKGKATLTVDKSSSTAYMELLSLTSEDSAVYYCARDYGFVLDYWGQGTTLTVSSASTKGPSVFPLAPSSKSTSGGTAALGCLVKDYFPEPVTVSWNSGALTSGVHTFPAVLQSSGLYSLSSVVTVPSSSLGTQTYICNVNHKPSNTKVDKKVEPKSCDKTHTCPPCPAPELRGGPKVFLFPPKPKDTLMISRTPEVTCVVVDVSHEDPEVKFNWYVDGVEVHNAKTKPREEQYASTYRVVSVLTVLHQDWLNGKEYKCKVSNKALPAPIEKTISKAKGQPREPQVYTLPPSREEMTKNQVSLTCLVKGFYPSDIAVEWESNGQPENNYKTTPPYLDSDGSFFLYSKLTVDKSRWQQGNVFSCSVMHEALHNHYTQESLSLSP
light 1: DIVLTQSPSIMSVSPGEKVTITCSASSSVSYMHWFQQKPGTSPKLCIYSTSNLASGVPARFSGRGSGTSYSLTISRVAAEDAATYYCQQRSNYPPWTFGGGTKLEIKRTVAAPSVFIFPPSDEQLKSGTASVVCLLNNFYPREAKVQWKVDNALQSGNSQESVTEQDSKDSTYSLSSTLTLSKADYEKHKVYACEVTHQGLSSPVTKSFNRGEC
heavy 2: QVQLVESGGGVVQPGGSLRLSCAASGFTFSNAWMHWVRQAPGKGLEWVAQIKDKSQNYATYVAESVKGRFTISRADSKNSIYLQMNSLKTEDTAVYYCRYVHYAAGYGVDIWGQGTTVTVSSASTKGPSVFPLAPSSKSTSGGTAALGCLVKDYFPEPVTVSWNSGALTSGVHTFPAVLQSSGLYSLSSVVTVPSSSLGTQTYICNVNHKPSNTKVDKKVEPKSCDKTHTCPPCPAPELRGGPKVFLFPPKPKDTLMISRTPEVTCVVVDVSHEDPEVKFNWYVDGVEVHNAKTKPREEQYASTYRVVSVLTVLHQDWLNGKEYKCKVSNKALPAPIEKTISKAKGQPREPQVYTLPPSRKEMTKNQVSLTCLVKGFYPSDIAVEWESNGQPENNYKTTPPYLDSDGSFFLYSKLTVDKSRWQQGNVFSCSVMHEALHNHYTQKSLSLSP
light 2: DIVMTQSPLSLPVTPGEPASISCRSSQPLVHSNRNTYLHWYQQKPGQAPRLLIYKVSNRFSGVPDRFSGSGSGTDFTLKISRVEAEDVGVYYCGQGTQVPYTFGQGTKLEIKRTVAAPSVFIFPPSDEQLKSGTASVVCLLNNFYPREAKVQWKVDNALQSGNSQESVTEQDSKDSTYSLSSTLTLSKADYEKHKVYACEVTHQGLSSPVTKSFNRGEC
notes: Made by Fab arm exchange of the bivalent anti-CLDN6 antibody CH04 with the bivalent anti-CD3 antibody CD3-1; human IgG1 constant region; One anti-CLDN6 arm and one anti-CD3 arm; also called CLDN6-TRAB; CLDN6-targeted T-cell redirecting bispecific antibody
EC50 (read off the curve), Jurkat/NFAT-RE luciferase reporter, target cells ABC-1 [1]: ~0.06 nM
Geo-mean value of FACS [2]: 80
Geo-mean value of FACS [3]: 36
Geo-mean value of FACS [4]: 34
Geo-mean value of FACS [5]: 23
Geo-mean value of FACS [6]: 1790
